Experimental data published in article PMC11408855, “The structure of the SufS–SufE complex reveals interactions driving protected persulfide transfer in iron-sulfur cluster biogenesis” (The Journal of Biological Chemistry, 2024).

Molecular target: T1, EcSufS, C-terminal his-tagged (wild type) (Escherichia coli, UniProt P77444 1-406, PLP (pyridoxal 5'-phosphate) cofactor)
T1 construct: EcSufS, cysteine desulfurase SufS of Escherichia coli, UniProt P77444; the gene was cloned; also called WT EcSufS; cysteine desulfurase SufS; source: E. coli BL21(DE3)Δsuf, pET44, autoinduction, purified (Ni2+ HisTrap HP); not shown: His tag, C-terminal, kept
T1 sequence: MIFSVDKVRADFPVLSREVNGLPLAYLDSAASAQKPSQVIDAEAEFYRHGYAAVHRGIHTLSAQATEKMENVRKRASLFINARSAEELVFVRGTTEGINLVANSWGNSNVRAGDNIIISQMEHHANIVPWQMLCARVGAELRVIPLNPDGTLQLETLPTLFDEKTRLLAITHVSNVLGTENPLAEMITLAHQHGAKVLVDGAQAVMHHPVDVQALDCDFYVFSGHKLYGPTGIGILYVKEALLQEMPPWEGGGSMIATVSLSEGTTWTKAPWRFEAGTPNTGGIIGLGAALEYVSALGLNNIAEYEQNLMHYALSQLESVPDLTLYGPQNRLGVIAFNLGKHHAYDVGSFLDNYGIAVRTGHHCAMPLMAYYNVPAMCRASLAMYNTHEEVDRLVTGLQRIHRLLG
Assay: fluorescence polarisation; 100 nM BODIPY-FL-labeled EcSufE titrated with EcSufS; 50 mM Mops pH 8.0, 150 mM NaCl, 0.1 mg/ml bovine serum albumin, 25 °C, 30 min; presence of 500 μM cysteine; apparent KD
Conditions: both partners purified

B1: BODIPY-FL-labeled C51A/E107C EcSufE (natural protein, Escherichia coli)
chain: MALLPDKEKLLRNFLRCANWEEKYLYIIELGQRLPELRDEDRSPQNSIQGAQSQVWIVMRQNAQGIIELQGDSDAAIVKGLIAVVFILYDQMTPQDIVNFDVRPWFCKMALTQHLTPSRSQGLEAMIRAIRAKAAALS
modifications: BODIPY-FL maleimide label (labeling efficiency 60 to 80%)
notes: EcSufE, transpersulfurase SufE of Escherichia coli, UniProt P76194, with C51A and E107C; also called "WT" EcSufE (double mutant background); C51A/E107C EcSufE control
Question: How did the Kd turn out when B1 was run?
Answer: 600 nM
